This is an account of results in patent US12187807B2, “Antibody molecules to C5AR1 and uses thereof” (Visterra, Inc., priority 2020, dated 2025).

The target in experiment [1] is T1, human C5aR1 transiently expressed on the surface of Expi293 cells (Homo sapiens, UniProt P21730, K279N).
T1 construct: expressed in transfected cells; host or cells: Expi293 cells, transient
T1 sequence (P21730 with tags, fused parts or gaps K279N limits assumed): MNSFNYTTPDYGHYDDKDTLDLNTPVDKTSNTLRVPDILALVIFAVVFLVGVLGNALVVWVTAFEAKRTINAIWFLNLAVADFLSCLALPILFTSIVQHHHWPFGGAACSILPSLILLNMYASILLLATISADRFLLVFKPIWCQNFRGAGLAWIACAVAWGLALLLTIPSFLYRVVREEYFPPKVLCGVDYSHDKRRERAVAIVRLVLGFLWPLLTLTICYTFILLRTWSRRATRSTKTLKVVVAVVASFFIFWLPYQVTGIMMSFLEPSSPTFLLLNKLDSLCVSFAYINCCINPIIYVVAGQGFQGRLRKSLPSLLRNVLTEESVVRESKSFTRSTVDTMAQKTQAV
The experiment in a line: Cell surface binding (flow cytometry), Expi293 cells transiently expressing human C5aR1. As to conditions: staining with 100 nM of antibody. The protocol:
(§1) Follow up screening to ensure specificity was performed by measuring cell surface binding to cells expressing, for example, human C5aR1, human C5aR2, mouse C5aR1, and control cells that were mock transfected. Briefly, cell surface binding was performed on various C5aR1 expressing cell lines (transiently expressed Expi293 cells, stable C5aR1-U937 cells, and neutrophils isolated from whole blood). Briefly, a titration of antibody diluted in flow buffer (1×PBS with 2% fetal bovine serum) was incubated with cells for 1 hour at 4° C. Cells were washed twice with flow buffer. Anti-human-APC secondary antibody was diluted 1:400 in flow buffer and incubated with cells for 30 minutes. Cells were washed twice with flow buffer and resuspended in 100 μL of flow buffer. Fluorescence was measured using the iQue Screen Plus flow cytometer.
A general note: Flow cytometry measures light scatter and fluorescence of single cells or particles in a stream.

The subject of experiment [2] is control cells that were mock transfected. The experiment in a line: Cell surface binding (flow cytometry), mock transfected Expi293 control cells. As to conditions: staining with 100 nM of antibody. The protocol: as §1
The target of experiment [3] is T2, C5aR1 (C5aR1-U937 cells) (Homo sapiens, UniProt P21730, K279N).
T2 construct: expressed in transfected cells
T2 sequence (P21730 with tags, fused parts or gaps K279N limits assumed): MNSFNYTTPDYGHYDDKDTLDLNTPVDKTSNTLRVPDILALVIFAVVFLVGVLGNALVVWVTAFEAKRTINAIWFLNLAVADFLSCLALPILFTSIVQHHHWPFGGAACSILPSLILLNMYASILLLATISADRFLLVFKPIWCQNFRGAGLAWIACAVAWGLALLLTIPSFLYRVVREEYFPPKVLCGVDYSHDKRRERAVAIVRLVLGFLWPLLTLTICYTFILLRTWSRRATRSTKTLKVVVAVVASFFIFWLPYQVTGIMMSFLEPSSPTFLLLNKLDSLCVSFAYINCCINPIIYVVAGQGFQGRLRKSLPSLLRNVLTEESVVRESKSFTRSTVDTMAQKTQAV
Nature of the experiment: C5a induced chemotaxis (transwell), C5aR1-U937 cells. Format: cell-based. As to conditions: C5aR1-U937 cells; 1, 10, or 100 nM antibody; C5a 10^−6 to 10^−9.5 M.
Excerpt: (§2) One of the primary mechanisms by which neutrophils migrate to the site of inflammation is by chemotaxis induced by a C5a/C5adesArg gradient is detected by C5aR1 signaling. Anti-C5aR1 antibodies were thus assessed in a chemotaxis assay for their ability to block C5a induced migration of neutrophils. The assay involved cell migration in a double chamber well separated by filters. The cells and inhibitors were applied into the upper chamber and the lower chamber was filled with the chemoattractant, causing the cells to migrate to the lower chamber. The inhibition activity was evaluated by counting the migrated cell numbers. Specifically, a titration of C5a was added to the bottom chamber a 96 transwell plate. Cells expressing human C5aR1 (C5aR1-U937 cells or human neutrophils) were incubated with or without antagonist and then seeded into the top chamber of the transwell plate. The cells were incubated for 2 hours. Cells that migrated to the bottom chamber were quantified using the CyQUANT cell proliferation kit following the manufacturer's protocol. The assay was performed using engineered cells stably expressing C5aR1 as well as using human neutrophils.
as §2, with “Anti-C5aR1” for “One of the primary mechanisms by which neutrophils migrate to the site of inflammation is by chemotaxis induced by a C5a/C5adesArg gradient is detected by C5aR1 signaling. Anti-C5aR1”, “were” for “were thus”
In a first experiment, C5aR1-U937 cells were seeded into the top chamber of a 96 Transwell plate in the presence of no antibody (antagonist), or of 1, 10, or 100 nM antibody (antagonist).

For experiment [4], the target named is T2, C5aR1 (C5aR1-U937 cells). Nature of the experiment: C5a induced calcium flux (Fluo-4), C5aR1-U937 cells. It is filed as cell-based. From the text: (§3) Intracellular calcium is released into the cytoplasm by stimulation of GPCRs and acts as a second messenger of GPCR signaling, commonly used to quantify GPCR agonism and antagonism. As such, calcium flux assays using calcium sensitive dye were utilized to detect cytosolic changes in calcium concentration. […] The dye penetrated the cell membrane and became active once inside the cell. The active form of the dye became fluorescent after binding to intracellular calcium and the fluorescence was used to determine C5aR1 signaling in response to C5a addition. Specifically, stable C5aR1-U937 cells or neutrophils isolated from whole blood were stained with Fluo-4 Direct Calcium Assay kit from Thermo Fisher for 1 hour at 37° C. Next, antibody or antagonist was incubated with the cells for 30 minutes. The basal fluorescence with an excitation at 494 nm and emission at 516 nm was measured for 15 seconds. C5a was added to the cells and the fluorescence was measured over a span of four minutes. The basal read from before C5a stimulation and the max signal after C5a stimulation were used to calculate the response ratio. The potency of the antibodies was assessed for their ability to inhibit intracellular calcium release in C5aR1 expressing cells in the presence of C5a. Similar to the chemotaxis assay, the calcium flux assays were performed using engineered cells stably expressing C5aR1 as well as using human neutrophils.
(In general: A change in cytosolic calcium serves as a functional read-out for many receptors and channels.)

Experiment [5] concerns the target T3, C5aR1 (human neutrophils) (Homo sapiens, UniProt P21730).
T3 construct: neutrophils isolated from whole blood; host or cells: human neutrophils (cryopreserved, or isolated from whole blood)
T3 sequence (P21730 1-350): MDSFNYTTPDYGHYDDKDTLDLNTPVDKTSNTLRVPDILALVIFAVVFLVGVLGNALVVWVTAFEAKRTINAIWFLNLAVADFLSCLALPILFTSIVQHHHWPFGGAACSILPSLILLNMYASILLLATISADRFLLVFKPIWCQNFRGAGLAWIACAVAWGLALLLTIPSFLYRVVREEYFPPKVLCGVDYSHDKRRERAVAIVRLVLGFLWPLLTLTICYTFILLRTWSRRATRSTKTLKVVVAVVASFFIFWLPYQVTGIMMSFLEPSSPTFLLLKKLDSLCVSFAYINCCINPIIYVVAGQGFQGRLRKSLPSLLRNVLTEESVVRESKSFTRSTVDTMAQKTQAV
Nature of the experiment: C5a induced calcium flux (Fluo-4), human neutrophils. It is filed as cell-based.
Excerpt: as §3

Experiment [6] addresses T4, biotinylated peptide representing ECL2 of C5aR1 (Homo sapiens, UniProt P21730).
T4 construct: cyclic ECL2 peptide spanning from residues R175 to C188
The experiment in a line: Epitope mapping by biolayer interferometry, ECL2 peptide. It is filed as binding. More on the design: key: “+” indicates binding to the listed peptide; “−” indicates lack of binding to the listed peptide. Conditions: biolayer interferometry, 10 μg/mL of antibody, biotinylated peptide on streptavidin biosensor. As to the method: (§4) The epitope mapping was undertaken, using biolayer interferometry, on a series of exemplary anti-C5aR1 antibodies generated as described in Example 1. Briefly, for each antibody, biotinylated peptides representing ECL2, the N-terminus with tyrosine sulfation, and the N-terminus without tyrosine sulfation, were immobilized in a streptavidin biosensor. Subsequently, the biosensor was exposed to 10 μg/mL of antibody to detect antibody binding to the immobilized peptide. The results of the epitope mapping study are shown in Table 4 (“+” indicates binding to the listed peptide; “−” indicates lack of binding to the listed peptide).
A general note: In BLI a coated tip is dipped into the sample, and binding shifts an interference pattern.

Experiment [7] has as its target T5, biotinylated peptide representing the N-terminus of C5aR1 with tyrosine sulfation (Homo sapiens, UniProt P21730).
T5 construct: the N-terminus with tyrosine sulfation
T5 sequence (P21730 1-37): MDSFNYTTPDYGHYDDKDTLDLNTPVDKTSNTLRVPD
The experiment in a line: Epitope mapping by biolayer interferometry, N-terminus with tyrosine sulfation. Format: binding. Also on record: key: “+” indicates binding to the listed peptide; “−” indicates lack of binding to the listed peptide. As to conditions: 10 μg/mL of antibody, biotinylated peptide on streptavidin biosensor. As to the method: as §4

In experiment [8] the target is T6, biotinylated peptide representing the N-terminus of C5aR1 without tyrosine sulfation (Homo sapiens, UniProt P21730).
T6 construct: the N-terminus without tyrosine sulfation
T6 sequence (P21730 1-37 limits assumed): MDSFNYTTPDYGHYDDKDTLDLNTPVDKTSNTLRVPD
The experiment in a line: Epitope mapping by biolayer interferometry, N-terminus without tyrosine sulfation. It is filed as binding. As to conditions: 10 μg/mL of antibody, biotinylated peptide on streptavidin biosensor. More on the design: key: “+” indicates binding to the listed peptide; “−” indicates lack of binding to the listed peptide. The protocol:
as §4

In experiment [9] the target is T7, C5aR1 (Homo sapiens, UniProt P21730).
T7 sequence (P21730 1-350): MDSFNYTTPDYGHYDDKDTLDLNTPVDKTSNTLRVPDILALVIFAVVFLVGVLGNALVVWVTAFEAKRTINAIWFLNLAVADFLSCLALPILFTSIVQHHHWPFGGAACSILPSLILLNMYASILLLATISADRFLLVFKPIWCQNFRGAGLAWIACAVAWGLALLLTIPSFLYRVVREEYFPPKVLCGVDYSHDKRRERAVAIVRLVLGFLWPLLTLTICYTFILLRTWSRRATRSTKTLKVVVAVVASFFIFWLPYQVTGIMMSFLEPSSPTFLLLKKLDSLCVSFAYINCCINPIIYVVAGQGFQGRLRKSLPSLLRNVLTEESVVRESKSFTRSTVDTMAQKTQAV
The experiment in a line: GeneBLAzer reporter assay (C5aR1 mediated Gα signaling). Format: cell-based. More on the design: host or cells: vendor's C5aR1 GeneBLAzer reporter cell line. Conditions: 10 nM of antibody, 10 nM C5a. As to the method: In addition, a GeneBLAzer reporter assay was used, which mimics the calcium flux assay. The GeneBLAzer assay kit and C5aR1 cell line were commercially available from Thermo Fisher (Catalog #K1544). The assay was performed as recommend by the manufacturer. Briefly, antibodies or antagonists were incubated for 30 minutes at 37° C. C5a was then added to the cells and incubated at 37° C. for an additional 4-5 hours. Beta-lactamase substrate was then added and incubated for 2 hours at room temperature. Fluorescent measurements for each well with an excitation/emission of 409/460 (blue) and 409/530 (green) were measured. An increase in the blue to green ratio was proportional to C5aR1 activation and was used to calculate the percent of activation for the cells in each well.
Exemplary anti-C5aR1 antibodies generated as described in Example 1 were screened for antagonist activity against human C5aR1 using the GeneBLAzer assay, as described in Example 1. Briefly, cells were pre-incubated with 10 nM of antibody followed by addition of 10 nM C5a. The engineered induction of beta-lactamase expression by C5a-C5aR1 signaling was measured using the BLA substrate and calculating the ratio of blue and green fluorescence.

B1: Clone_317v2-1 (antibody, V domains shown)
VH: QVQLQQPGAELVMPGASVKLSCKASGYTFTSYWMHWVKQRPGQGLEWIGEIDPSDSYTNYNQKFKGKATLTVDKSSSTAYMQLSSLTSEDSAVYYCARVAYYSNFGGFAYWGQGTTVTVSS
VL: DIVMTQSPSSLSVSAGEKVTMSCKSSQSLLKSGNQKNYLAWHQQKPGQPPKLLIYGASTRESGVPDRFTGSGSGTDFTLTISSVQAEDLAVYYCQNDHSHPYTFGGGTKLEIK
As for B1, the “Cell surface binding, Human C5aR1, geometric mean fluorescent intensity” value in [1] is on record as 8,106. Also, the “Cell surface binding, Mock transfection, geometric mean fluorescent intensity” value in experiment [2] is 4,535 Clone_507.

B2: clone 11v2: anti-C5aR1 Site II antibody; VH SEQ ID NO: 482, VL SEQ ID NO: 542 (antibody, V domains shown)
VH: QVQLQQSGPELVKPGASVKISCKASGYSFSSSWMNWVKQRPGKGLEWIGRISPGDGDTRYSGKFKGKATLTADKSSSTAYMQVTSLTSEDSAIYFCVRFLITSTRYVMDYWGQGTTVTVSS
VL: DVVMTQTPLSLPVSLGDQASISCRSSQSLVHSNGNTYLHWYLQKPGQSPKLLIYKVSNRFSGVPDRFSGSGSGTDFTLKISRVEAEDLGVYFCSQSTLVPPTFGGGTKLEIK
For B2, the “inhibition of cell chemotaxis” value in [3] is “strongest effects”. For the same molecule, the “inhibition of C5a induced intracellular calcium flux” value in [4] is on record as “inhibition of the C5a induced calcium efflux”. For the same molecule, the “inhibition of C5a induced calcium efflux” value in experiment [5] is given as “inhibition of the C5a induced calcium efflux”. Moreover, the “Binding to Cyclic ECL2 peptide” value in experiment [6] is on record as “+”. The “Binding to Sulfated N-terminal peptide” value in experiment [7] was “−”. Besides, the “Binding to Non-sulfated N-terminal peptide” value in [8] is given as “−”. The “antagonism of C5aR1 compared to reference antibodies or to Avacopan” value in experiment [9] is given as “improved”.

B3: Clone_11v2 (antibody, V domains shown)
VH: QVQLQQSGPELVKPGASVKISCKASGYSFSSSWMNWVKQRPGKGLEWIGRISPGDGDTRYSGKFKGKATLTADKSSSTAYMQVTSLTSEDSAIYFCVRFLITSTRYVMDYWGQGTTVTVSS
VL: DVVMTQTPLSLPVSLGDQASISCRSSQSLVHSNGNTYLHWYLQKPGQSPKLLIYKVSNRFSGVPDRFSGSGSGTDFTLKISRVEAEDLGVYFCSQSTLVPPTFGGGTKLEIK
With B3, the “Cell surface binding, Human C5aR1, geometric mean fluorescent intensity” value in experiment [1] is reported as 310,187. Moreover, the “Cell surface binding, Mock transfection, geometric mean fluorescent intensity” value in [2] is 4,976 Clone_454.
